{"source": "patent US20160334404", "proteins": {"B1": {"name": "recombinant lipoprotein-associated phospholipase A2 (rLp-PLA2) expressed in HEK293 cells (protein)", "chain": "FDWQYINPVAHMKSSAWVNKIQVLMAAASFGQTKIPRGNGPYSVGCTDLMFDHTNKGTFLRLYYPSQDNDRLDTLWIPNKEYFWGLSKFLGTHWLMGNILRLLFGSMTTPANWNSPLRPGEKYPLVVFSHGLGAFRTLYSAIGIDLASHGFIVAAVEHRDRSASATYYFKDQSAAEIGDKSWLYLRTLKQEEETHIRNEQVRQRAKECSQALSLILDIDHGKPVKNALDLKFDMEQLKDSIDREKIAVIGHSFGGATVIQTLSEDQRFRCGIALDAWMFPLGDEVYSRIPQPLFFINSEYFQYPANIIKMKKCYSPDKERKMITIRGSVHQNFADFTFATGKIIGHMLKLKGDIDSNVAIDLSNKASLAFLQKHLGLHKDFDQWDCLIEGDDENLIPGTNINTTNQHIMLQNSSGIEKYN"}}, "biological_target": "Q13093", "assay": "estimated from dilution inactivation (residual CAM activity against enzyme concentration), self-association"}
{"protein": "B1", "values": [{"measurement": "concentration at which roughly half is monomer and half aggregate or oligomer", "value": "At the concentration at 2.5 µg/ml or 53 nM, roughly half of rLp-PLA2 is in monomer and half forms the aggregate or oligomer as estimated"}]}
